Read-outs that look alike come from different tables or passages of the source.
Legend:
[1] = target: T1, His-tagged SIRT1 catalytic domain (His-tagged SIRT1^CAT) (human, UniProt Q96EB6 234-510); experiment: pull-down
T1 sequence (looked up): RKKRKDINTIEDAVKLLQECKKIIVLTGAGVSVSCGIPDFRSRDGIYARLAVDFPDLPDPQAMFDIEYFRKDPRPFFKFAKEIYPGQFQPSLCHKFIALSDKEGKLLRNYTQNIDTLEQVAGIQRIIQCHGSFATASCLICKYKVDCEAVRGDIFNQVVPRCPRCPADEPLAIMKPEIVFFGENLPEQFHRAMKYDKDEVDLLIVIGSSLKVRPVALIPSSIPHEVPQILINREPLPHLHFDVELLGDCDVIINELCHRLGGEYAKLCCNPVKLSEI

[2] = target: T2, SIRT1^CAT S265A (human, UniProt Q96EB6 234-510, S265A); experiment: SEC
T2 sequence (looked up): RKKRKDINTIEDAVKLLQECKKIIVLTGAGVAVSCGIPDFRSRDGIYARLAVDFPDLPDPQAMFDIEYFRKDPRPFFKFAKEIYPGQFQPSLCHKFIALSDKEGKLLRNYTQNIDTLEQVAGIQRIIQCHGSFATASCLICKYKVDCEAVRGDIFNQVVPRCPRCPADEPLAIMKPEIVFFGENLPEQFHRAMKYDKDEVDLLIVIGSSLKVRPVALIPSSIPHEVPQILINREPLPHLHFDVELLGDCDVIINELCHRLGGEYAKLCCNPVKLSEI

[3] = target: T3, SIRT1^CAT R276A (human, UniProt Q96EB6 234-510, R276A); experiment: SEC
T3 sequence (looked up): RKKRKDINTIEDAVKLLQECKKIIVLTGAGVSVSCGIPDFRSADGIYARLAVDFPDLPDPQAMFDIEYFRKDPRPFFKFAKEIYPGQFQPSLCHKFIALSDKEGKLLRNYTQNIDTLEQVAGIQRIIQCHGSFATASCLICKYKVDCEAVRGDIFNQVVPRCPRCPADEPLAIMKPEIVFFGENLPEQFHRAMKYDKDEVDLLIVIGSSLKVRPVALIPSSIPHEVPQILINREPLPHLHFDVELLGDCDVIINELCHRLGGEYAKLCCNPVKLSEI

[4] = target: T4, SIRT1^CAT Q345A (human, UniProt Q96EB6 234-510, Q345A); experiment: SEC
T4 sequence (looked up): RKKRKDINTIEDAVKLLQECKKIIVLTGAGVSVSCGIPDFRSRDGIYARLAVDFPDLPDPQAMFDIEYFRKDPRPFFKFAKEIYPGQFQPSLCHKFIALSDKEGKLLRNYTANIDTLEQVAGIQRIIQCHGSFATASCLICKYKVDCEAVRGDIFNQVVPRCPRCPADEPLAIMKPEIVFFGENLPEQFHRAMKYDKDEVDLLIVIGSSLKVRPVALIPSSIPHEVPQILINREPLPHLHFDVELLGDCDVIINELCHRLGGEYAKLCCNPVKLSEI

[5] = target: T5, SIRT1^CAT I347A (human, UniProt Q96EB6 234-510, I347A); experiment: SEC
T5 sequence (looked up): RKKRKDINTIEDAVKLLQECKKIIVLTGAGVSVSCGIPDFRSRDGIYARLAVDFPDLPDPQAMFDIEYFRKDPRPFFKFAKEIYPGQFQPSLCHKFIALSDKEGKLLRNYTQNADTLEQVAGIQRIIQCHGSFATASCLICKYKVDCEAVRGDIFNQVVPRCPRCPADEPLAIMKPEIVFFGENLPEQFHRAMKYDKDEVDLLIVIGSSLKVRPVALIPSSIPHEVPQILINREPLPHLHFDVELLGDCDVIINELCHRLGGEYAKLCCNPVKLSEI

[6] = target: T6, SIRT1^CAT H363A (human, UniProt Q96EB6 234-510, H363A); experiment: SEC
T6 sequence (looked up): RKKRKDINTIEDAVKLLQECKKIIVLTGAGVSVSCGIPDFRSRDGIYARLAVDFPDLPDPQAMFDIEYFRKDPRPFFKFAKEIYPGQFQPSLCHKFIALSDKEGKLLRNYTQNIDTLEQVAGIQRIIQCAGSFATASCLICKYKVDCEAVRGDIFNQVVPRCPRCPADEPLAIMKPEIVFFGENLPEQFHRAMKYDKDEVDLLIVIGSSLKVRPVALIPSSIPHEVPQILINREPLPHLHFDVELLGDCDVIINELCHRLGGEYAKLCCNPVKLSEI

[7] = target: T7, SIRT1^CAT F414A (human, UniProt Q96EB6 234-510, F414A); experiment: SEC
T7 sequence (looked up): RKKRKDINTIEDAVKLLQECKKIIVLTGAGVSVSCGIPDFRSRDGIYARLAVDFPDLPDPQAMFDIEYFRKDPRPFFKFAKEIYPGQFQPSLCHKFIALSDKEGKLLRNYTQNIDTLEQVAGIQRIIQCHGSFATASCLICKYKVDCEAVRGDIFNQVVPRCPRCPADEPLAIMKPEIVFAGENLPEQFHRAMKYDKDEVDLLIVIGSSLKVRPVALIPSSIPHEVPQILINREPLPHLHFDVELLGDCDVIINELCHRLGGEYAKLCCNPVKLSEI

[8] = target: T8, SIRT1^CAT R466A (human, UniProt Q96EB6 234-510, R466A); experiment: SEC
T8 sequence (looked up): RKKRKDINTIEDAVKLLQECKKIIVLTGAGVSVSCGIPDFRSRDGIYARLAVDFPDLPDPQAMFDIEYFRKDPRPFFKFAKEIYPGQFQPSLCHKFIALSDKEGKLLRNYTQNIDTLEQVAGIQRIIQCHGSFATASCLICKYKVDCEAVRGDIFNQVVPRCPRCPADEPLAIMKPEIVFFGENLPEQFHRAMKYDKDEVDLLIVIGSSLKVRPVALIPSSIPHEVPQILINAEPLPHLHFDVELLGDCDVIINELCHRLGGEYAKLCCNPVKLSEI

[9] = target: T9, SIRT1^CAT D481A (human, UniProt Q96EB6 234-510, D481A); experiment: SEC
T9 sequence (looked up): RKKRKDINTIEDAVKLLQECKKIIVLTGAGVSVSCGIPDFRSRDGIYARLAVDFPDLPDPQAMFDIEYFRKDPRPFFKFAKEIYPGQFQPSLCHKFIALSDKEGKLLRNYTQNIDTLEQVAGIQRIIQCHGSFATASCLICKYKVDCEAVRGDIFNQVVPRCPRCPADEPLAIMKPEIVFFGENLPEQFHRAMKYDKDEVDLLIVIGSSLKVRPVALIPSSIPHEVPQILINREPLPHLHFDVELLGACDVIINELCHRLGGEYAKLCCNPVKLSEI

[10] = target: T10, SIRT1 catalytic domain (SIRT1^CAT), residues 234-510 (human, UniProt Q96EB6 234-510); experiment: SEC
T10 sequence (looked up): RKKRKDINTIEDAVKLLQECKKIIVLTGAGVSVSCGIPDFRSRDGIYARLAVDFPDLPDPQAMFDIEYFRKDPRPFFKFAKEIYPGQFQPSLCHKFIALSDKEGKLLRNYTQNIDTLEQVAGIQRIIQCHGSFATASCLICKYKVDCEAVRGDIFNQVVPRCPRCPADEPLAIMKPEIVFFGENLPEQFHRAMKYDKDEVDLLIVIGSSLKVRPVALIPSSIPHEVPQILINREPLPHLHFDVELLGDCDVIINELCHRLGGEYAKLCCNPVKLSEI

[11] = target: T10, SIRT1 catalytic domain (SIRT1^CAT), …; experiment: SEC; remark: listed apart in the source
[12] = target: T10, SIRT1 catalytic domain (SIRT1^CAT), …; experiment: SEC; remark: listed apart in the source

Measured: binding result

QYLFLPPNRYIFHGAEVYSDSEDDV (domain or fragment, human, UniProt Q96EB6 641-665, looked up) [GST-tagged C-terminal regulatory segment of SIRT1 (GST-CTR)]
binds: [1]

QYLFLPPNRYIFHGAEVYSDSEDDV (domain or fragment, human, UniProt Q96EB6 641-665, looked up) [C-terminal regulatory segment of SIRT1 (CTR), residues 641-665]
not listed: [1] | [11] | [12]
binds: all other assays above

QYLFLPPNRYIFHGAEVYSDSEDDV (domain or fragment, human, UniProt Q96EB6 641-665, looked up) [SUMO-tagged C-terminal regulatory segment of SIRT1 (SUMO-CTR), residues 641-665]
binds: [11] | [1]

QYLFLPPNRYIFHGAAVYSDSEDDV (domain or fragment, human, UniProt Q96EB6 641-665, looked up) [CTR E656A]
binds: [12]

— article PMC4211926 (Journal of molecular biology, 2013)
